Source: publication PMC6917740

Biological target: T1, 12 amino acid peptide (HSET-N) labeled with biotin at the N-terminus (bio-…)
T1 sequence (peptide, biotin at the N-terminus): EDGLEPEKKRTR
Experiment: SPR; BIAcore T200, 25 °C; biotinylated peptide immobilised on a Series S sensor chip SA at 10-40 RU; antibodies injected 3 min at 30 µl/min in HBS-EP (10 mM HEPES pH 7.4, 250 mM NaCl, 3 mM EDTA, 0.05% P-20); at least five concentrations; 1:2 binding model, which reflects the avidity effect; KD = …

B1: mouse 6C407 IgG2a/κ (antibody, V domains shown)
VH: EVQLQQSGAELVKPGASVKLSCTASGFNIKDTYIHWVKQRPEQGLEWIGRIDPANGNTKYDPKFQGKATITADTSSNTAYLQLSSLTSEDTAVYYCARGYGSRSAMDYWGQGTSVTVS
VL: DIVLTQSPASLAVSLGQRATISCRASKSVSTSGYSYMLWYQQKPGQPPKLLIYLASNLESGVPARFSGSGSGTDFTLNIHPVEEEDAATYYCQHSRELPWTFGGGTKLEIK
- Kd: 2.45 nM
- koff: 0.00138 s⁻¹
- kon: 567000 M⁻¹ s⁻¹

B2: chimeric mouse-chicken MC-6C407 IgY/λ (antibody, V domains shown)
VH: EVQLQQSGAELVKPGASVKLSCTASGFNIKDTYIHWVKQRPEQGLEWIGRIDPANGNTKYDPKFQGKATITADTSSNTAYLQLSSLTSEDTAVYYCARGYGSRSAMDYWGQGTSVTVS
VL: DIVLTQSPASLAVSLGQRATISCRASKSVSTSGYSYMLWYQQKPGQPPKLLIYLASNLESGVPARFSGSGSGTDFTLNIHPVEEEDAATYYCQHSRELPWTFGGGTKLEIK
- Kd: 1.24 nM
- koff: 0.000632 s⁻¹
- kon: 511000 M⁻¹ s⁻¹
